Patent publication US20230220104A1
Like-named read-outs stand apart in the source and are kept apart here.

Legend:
Assay in all cases: cell-based or functional assay
[1] = molecular target: human CD73 on cells (H322, MDA-MB-231, HT-144, T cells, CD73-transfected HEK293T) (human) (UniProt P21589)
[2] = molecular target: human CD73 on cells (H322, MDA-MB-231, HT-144, T cells, CD73-transfected HEK293T) (human) (UniProt P21589); remark: listed apart in the source
[3] = molecular target: human CD73 on cells (H322, MDA-MB-231, HT-144, T cells, CD73-transfected HEK293T) (human) (UniProt P21589); remark: listed apart in the source

Sequence of human CD73 on cells (H322, MDA-MB-231, HT-144, T cells, CD73-transfected HEK293T) (human) (P21589 27-549): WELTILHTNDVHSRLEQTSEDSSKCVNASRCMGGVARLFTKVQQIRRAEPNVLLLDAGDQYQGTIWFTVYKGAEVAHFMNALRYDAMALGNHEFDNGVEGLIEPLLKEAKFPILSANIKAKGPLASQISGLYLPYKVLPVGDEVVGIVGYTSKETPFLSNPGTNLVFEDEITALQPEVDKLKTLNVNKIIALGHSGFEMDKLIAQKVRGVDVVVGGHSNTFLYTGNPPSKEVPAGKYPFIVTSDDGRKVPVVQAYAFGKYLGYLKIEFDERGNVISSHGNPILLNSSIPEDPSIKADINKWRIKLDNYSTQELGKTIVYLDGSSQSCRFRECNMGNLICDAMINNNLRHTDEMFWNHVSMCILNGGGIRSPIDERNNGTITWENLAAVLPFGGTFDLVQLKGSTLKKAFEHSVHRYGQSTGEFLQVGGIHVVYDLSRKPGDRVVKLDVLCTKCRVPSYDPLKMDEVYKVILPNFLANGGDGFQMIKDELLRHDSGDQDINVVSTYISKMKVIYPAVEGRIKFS

IC50 of AMP degradation suppressive function, H322 cells [1]: 0.02 µg/mL | IC50 of AMP degradation suppressive function, H322 cells [2]: 0.04 µg/mL | IC50 of AMP degradation suppressive function (cell line of Table 7 not stated; H322 in FIG. 12) [3]: 0.007 µg/mL | IC50 of AMP degradation suppressive function, H322 cells [3]: 0.091 µg/mL | IC50 of AMP degradation suppressive function, MDA-MB-231 cells [3]: 0.111 µg/mL
Substance: Benchmark antibody (antibody having the same sequences as the published variable regions of MEDI9447)
